A word on the EC50: it is the concentration at which the effect is half-maximal. Usually IC50 stands for the point on the concentration scale where inhibition reaches its midpoint.

Assay [1] has as its target T1, mouse PD-L1-Fc (mouse, UniProt Q9EP73). Briefly: ELISA. A general note: ELISA stands for enzyme-linked immunosorbent assay.
Assay [2] deals with T1, mouse PD-L1-Fc. In words: ELISA. The source holds these as a separate data set.

T1 sequence (Q9EP73 19-239): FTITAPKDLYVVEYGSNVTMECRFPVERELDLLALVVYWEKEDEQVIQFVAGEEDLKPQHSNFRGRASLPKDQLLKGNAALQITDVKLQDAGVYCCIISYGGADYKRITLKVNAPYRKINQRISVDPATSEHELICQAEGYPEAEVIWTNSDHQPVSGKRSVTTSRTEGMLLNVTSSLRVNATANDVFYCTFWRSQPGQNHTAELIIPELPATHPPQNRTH

B1: PD-L1 nanobody Nb16 (VHH linked to an Fc fragment) (VHH)
VHH: QVQLQESGGGSVQAGGSLRLSCAASGYTDRNYWMGWFRQAPGKEREGVAALYTRTGSTYYADSVKGRFTISHDNAKNTLYLQMNSLKPEDTAVYYCAADSNAYGLAPLHHYWGQGTQVTVSS
For B1, in the assay with mouse PD-L1-Fc [1], the midpoint of the response, the EC50, lay at 0.516 nM. In the assay with mouse PD-L1-Fc [2], this molecule showed an IC50 of 6.78 nM.
